Article doi:10.1101/2024.03.07.583918

B1: GWEKF pentapeptide (peptide)
peptide: GWEKF
B2: GWTTF pentapeptide with substitution of G by D at position 1 (peptide)
peptide: DWTTF
B3: GWTTF pentapeptide (peptide)
peptide: GWTTF
B4: GWQRF pentapeptide (peptide)
peptide: GWQRF
B5: DWTSF pentapeptide (peptide)
peptide: DWTSF
B6: NWETF pentapeptide (peptide)
peptide: NWETF
B7: NWTTF pentapeptide (peptide)
peptide: NWTTF

Target: CheR of Pectobacterium atrosepticum SCRI1043 (Pectobacterium atrosepticum SCRI1043)
Experiment: ITC

Binder	Kd	fold decrease in affinity against GWTTF
B1	200 nM	–
B2	–	2.6 fold
B3	90 nM	–
B4	540 nM	–
B5	360 nM	–
B6	480 nM	–
B7	1000 nM	–
